Consider two molecules from paper PMC10185304, “Structure of Anabaena flos-aquae gas vesicles revealed by cryo-ET” (Structure (London, England : 1993), 2023).

B1: GvpC from Anabaena flos-aquae (Ana) gas vesicles (natural protein, UniProt P09413 1-193, looked up)
chain: MISLMAKIRQEHQSIAEKVAELSLETREFLSVTTAKRQEQAEKQAQELQAFYKDLQETSQQFLSETAQARIAQAEKQAQELLAFHKELQETSQQFLSATAQARIAQAEKQAQELLAFYQEVRETSQQFLSATAQARIAQAEKQAQELLAFHKELQETSQQFLSATADARTAQAKEQKESLLKFRQDLFVSIFG
notes: Gas vesicle protein GvpC, Anabaena flos-aquae (Dolichospermum flos-aquae strain 1403/13F); five 33-residue repeats plus short N and C termini; in PDB 8GBS it is modelled only as a poly-Ala chain of one repeat's length; removed with 6 M urea to give stripped (AnaS) vesicles; also called Ana GvpC; accessory protein GvpC; source: endogenous, in native gas vesicles isolated from Anabaena flos-aquae …
B2: GvpA from Anabaena flos-aquae (Ana) gas vesicles (natural protein, UniProt P10397 1-71, looked up)
chain: MAVEKTNSSSSLAEVIDRILDKGIVIDAWVRVSLVGIELLAIEARIVIASVETYLKYAEAVGLTQSAAVPA
notes: Gas vesicle structural protein GvpA (~8 kDa), Anabaena flos-aquae (Dolichospermum flos-aquae strain 1403/13F); polymerised into the helical filament that forms the gas vesicle shell; Native protein as it stands in purified gas vesicles; also called Ana GvpA; major structural protein; source: endogenous, in gas vesicles isolated from Anabaena flos-aquae by buoyancy purification

Holding throughout (assay): cryo-EM structure; cryo-electron tomography with subtomogram averaging of the shell of native Ana gas vesicles (7.7 Å) and of urea-stripped AnaS gas vesicles (7.3 Å), 10 mM HEPES pH 7.5; GvpA homology model (from PDB 7R1C) and a poly-Ala helix for GvpC fitted as rigid bodies
Series [1] concerns the target B2. As to conditions: both partners purified.
Series [2] concerns the molecule itself.
Series [3] concerns the target B1. Particulars: both partners purified.

Regarding B1, in series [1], the stoichiometry N (usually a count of units in the complex or per binding partner) is ~0.05 GvpC per GvpA.

As for B2, the binding result in series [2] and in series [3] was “binds” in each case.
